Laboratory results as given in the supplement of paper PMC9876800.

System: peptide library, one residue held at a place counted from the S/T acceptor
Test: relative phosphorylation of the sub-library (ratio to the mean residue at this position); human; higher = residue favoured
Outline: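 Relative sub-library phosphorylation, a ratio to the mean residue at that position, was obtained by phosphorimaging and densitometry of spots on streptavidin membranes. Before capture, purified recombinant kinases were incubated for 90 min under kinase-specific conditions with 50 μM biotinylated degenerate peptide sub-libraries and 50 μM ATP spiked with γ-32P-ATP. Each sub-library fixed one residue at one position around a central Ser/Thr.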

Chain of TP53RK, construct: Full length (Q96S44 whole entry, looked up): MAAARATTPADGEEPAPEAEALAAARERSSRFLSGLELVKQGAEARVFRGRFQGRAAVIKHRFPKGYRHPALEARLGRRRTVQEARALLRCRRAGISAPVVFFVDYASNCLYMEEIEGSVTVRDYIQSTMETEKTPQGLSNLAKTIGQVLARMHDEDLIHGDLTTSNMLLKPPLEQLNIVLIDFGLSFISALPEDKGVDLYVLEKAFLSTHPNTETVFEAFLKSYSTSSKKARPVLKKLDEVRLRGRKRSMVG
Chain of PAK2, construct: aa3-end (Q13177 3-524, looked up): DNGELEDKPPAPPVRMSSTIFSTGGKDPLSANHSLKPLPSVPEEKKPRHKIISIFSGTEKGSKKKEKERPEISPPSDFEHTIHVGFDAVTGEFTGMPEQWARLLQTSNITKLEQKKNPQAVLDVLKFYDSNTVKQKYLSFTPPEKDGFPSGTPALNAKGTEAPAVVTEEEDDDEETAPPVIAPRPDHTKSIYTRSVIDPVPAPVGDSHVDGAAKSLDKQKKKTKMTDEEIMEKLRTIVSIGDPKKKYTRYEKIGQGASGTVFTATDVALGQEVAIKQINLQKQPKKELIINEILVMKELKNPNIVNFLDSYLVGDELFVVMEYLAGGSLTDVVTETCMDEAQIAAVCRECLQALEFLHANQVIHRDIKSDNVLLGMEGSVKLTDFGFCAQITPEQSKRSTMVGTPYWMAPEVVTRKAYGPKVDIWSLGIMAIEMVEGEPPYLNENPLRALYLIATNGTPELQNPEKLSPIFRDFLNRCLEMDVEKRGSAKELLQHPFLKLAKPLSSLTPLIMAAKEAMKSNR
Chain of TNIK, construct: aa1-314 (Q9UKE5 1-314, looked up): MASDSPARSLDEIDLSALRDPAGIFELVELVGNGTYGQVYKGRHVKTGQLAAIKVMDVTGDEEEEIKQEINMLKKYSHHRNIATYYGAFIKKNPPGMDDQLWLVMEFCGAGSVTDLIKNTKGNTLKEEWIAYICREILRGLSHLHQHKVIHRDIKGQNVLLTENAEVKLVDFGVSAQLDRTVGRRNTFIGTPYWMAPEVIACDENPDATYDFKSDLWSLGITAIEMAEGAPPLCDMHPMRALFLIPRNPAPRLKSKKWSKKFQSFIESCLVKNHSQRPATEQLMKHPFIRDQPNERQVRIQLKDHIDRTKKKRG

TP53RK, construct: Full length (from UniProt Q96S44)
relative phosphorylation
Details	at +1	at +2	at +3	at +4	at -1	at -2	at -3	at -4	at -5
A fixed	0.941	0.938	1.06	0.947	1.23	1.24	1.01	1.17	1.05
D fixed	1.03	1.01	0.952	1.05	0.972	0.929	1.02	0.897	0.956
E fixed	1.09	1.08	0.988	1.16	1	1.04	1.1	0.973	0.922
F fixed	1.12	1.09	1.04	0.983	0.998	0.94	1.03	0.971	0.953
G fixed	0.918	0.956	1.08	0.958	1.3	1.49	1.08	1.12	0.976
H fixed	1.07	1.33	1.07	1.11	0.847	0.877	0.987	1.11	1.17
I fixed	0.913	0.816	0.945	0.896	0.976	1.01	0.878	0.829	0.893
K fixed	1.05	1.01	0.99	1.09	0.864	0.848	0.985	1.07	1.12
L fixed	1.01	0.85	0.926	0.862	1.03	0.981	0.815	0.792	0.86
M fixed	0.979	0.926	0.959	0.879	1.04	1.02	1.03	0.949	0.946
N fixed	1.01	0.998	0.947	0.955	0.933	0.927	1.02	0.966	0.961
P fixed	0.85	0.925	1.02	0.967	1.24	1.2	0.955	1.16	0.989
Q fixed	1.04	0.975	0.953	1.08	0.897	0.906	1.06	1.04	0.903
R fixed	0.973	0.971	0.964	1.01	0.857	0.853	1	1.03	1.12
V fixed	0.917	0.885	0.949	0.838	0.964	0.989	0.894	0.931	0.962
W fixed	1.05	1.13	1.04	1.15	0.907	0.867	1.14	1.07	1.16
Y fixed	1.05	1.11	1.12	1.07	0.939	0.892	0.996	0.922	1.05
pThr fixed	0.977	0.952	0.886	1.03	1.06	1.08	0.987	0.973	0.943
pTyr fixed	1.05	1.11	1.02	1.01	3.48	1.31	1.08	0.942	0.944

PAK2, construct: aa3-end (from UniProt Q13177)
relative phosphorylation
Details	at +1	at +2	at +3	at +4	at -1	at -2	at -3	at -4	at -5
A fixed	0.794	0.823	0.781	0.846	0.808	0.606	0.786	0.97	1.05
D fixed	0.359	0.391	0.855	0.98	0.562	0.197	0.506	0.844	0.724
E fixed	0.432	0.37	0.921	0.988	0.522	0.222	0.469	0.891	0.602
F fixed	1.18	1.76	1.77	0.95	0.956	0.464	0.699	0.729	0.803
G fixed	0.916	0.643	0.868	1.01	0.668	0.479	0.891	1.06	1.2
H fixed	0.997	1.4	1.14	1.07	1.29	1.44	1.2	1.09	1.16
I fixed	1.22	1.22	1.03	0.87	0.796	0.606	0.583	0.673	0.741
K fixed	1.01	0.452	0.623	0.938	1.41	1.12	1.78	1.58	1.81
L fixed	1.16	1.37	1.13	1.02	1.18	0.391	0.561	0.729	0.707
M fixed	1.64	1.14	1.07	1.07	1.17	0.416	0.599	0.885	0.672
N fixed	0.738	0.734	0.847	1.22	1.07	0.503	0.977	1.02	1.04
P fixed	0.222	0.625	0.903	1.38	0.723	0.935	0.894	0.944	0.926
Q fixed	1.06	0.797	0.754	1.08	1.08	0.572	0.827	0.901	0.889
R fixed	1.19	0.658	0.657	0.821	1.72	7.1	3.91	2.26	2.31
V fixed	1.2	1.01	0.906	0.787	0.763	0.642	0.557	0.688	0.694
W fixed	1.65	1.18	1.33	1.15	1.03	0.485	0.954	0.887	0.801
Y fixed	1.23	2.42	1.42	0.824	1.25	0.821	0.801	0.84	0.858
pThr fixed	0.66	0.551	0.597	1.12	0.392	0.495	0.74	1.04	0.931
pTyr fixed	0.822	2.1	1.11	0.856	0.652	0.379	0.8	0.71	0.876

TNIK, construct: aa1-314 (from UniProt Q9UKE5)
relative phosphorylation
Details	at +1	at +2	at +3	at +4	at -1	at -2	at -3	at -4	at -5
A fixed	0.761	1.16	0.938	1.13	1.07	1.21	1.01	1.08	1.36
D fixed	0.223	0.678	0.496	0.73	0.855	0.883	0.799	0.968	0.923
E fixed	0.249	0.591	0.389	0.656	0.682	0.577	0.76	1.1	0.885
F fixed	0.89	0.449	0.465	0.632	0.699	1.24	0.895	0.959	0.909
G fixed	0.746	1.01	0.904	1.17	1.73	1.3	1.2	1.18	1.31
H fixed	0.916	1.28	0.94	1.06	1.52	1.19	1.47	1.13	1.02
I fixed	1.49	0.459	0.381	0.593	0.326	0.689	0.701	0.73	0.724
K fixed	1.08	2.49	3.02	2.18	1.36	0.919	1.44	1.17	1.2
L fixed	2.4	0.685	0.777	0.636	0.803	0.595	0.67	0.751	0.619
M fixed	1.98	0.806	0.52	0.715	1.06	0.79	0.814	0.866	0.793
N fixed	0.843	0.992	0.871	1.02	1.33	1.19	1.15	0.792	1.02
P fixed	0.338	1.05	1.14	1.23	0.65	0.736	1.08	1.18	1.41
Q fixed	0.782	1.04	0.886	1.04	0.859	0.987	0.896	0.964	0.912
R fixed	0.995	2.4	3.23	2.2	1.7	1.19	1.33	1.17	1.22
V fixed	0.898	0.531	0.503	0.65	0.438	0.785	0.594	0.816	0.891
W fixed	1.32	0.593	0.789	0.738	0.685	1.17	1.04	0.954	0.771
Y fixed	1.08	0.783	0.745	0.619	1.23	1.55	1.16	1.19	1.02
pThr fixed	0.541	0.566	0.532	0.519	0.449	0.797	0.884	0.945	1
pTyr fixed	0.42	0.505	0.638	0.581	1.02	0.969	1.22	1.15	1.03
